This note sets out measurements from patent US20190153106A1 (TRUSTEES OF BOSTON UNIVERSITY, published 2019).

Several values for one entry are separate records, joined by “and”; a condition that tells them apart may be missing. Equal values may be shown once. Read-outs that look alike come from different tables or passages of the source.

B3: human DEspR (dual endothelin-1/VEGF signal peptide receptor) (receptor)
chain: MTMFKGSNEMKSRWNWGSITCIICFTCVGSQLSMSSSKASNFSGPLQLYQRELEIFIVLTDVPNYRLIKENSHLHTTIVDQGRTV
modifications: glycosylated (~17 kDa band, PNGase-sensitive)
notes: On intact Panc1 cells / Panc1 CSCs in the FACS assays and on HUVECs in the angiogenesis assays; In pulldowns and Western blots it came from membrane proteins of U87 CSCs and hDEspR-Cos1 permanent transfectants; also called hDEspR; DEAR

For assay [1], the target named is B3. Nature of the assay: saturation binding by FACS, AF568-labelled mAb on DEspR+ Panc1 cells. Here is the method:
(§1) Saturation binding curves of monoclonal antibody (mAb) binding to DEspR on Panc1 CSCs. […] Specific binding was determined by FACS analysis using 100,000 cells in 0.25 ml containing increasing concentrations of mAbs. Incubations were done at 4° C. for 20 min and immediately subjected to FACS analysis on a BDTM LSRII Flow cytometer. Each data point was performed in duplicate.
Fully human VH5/VK1 has a slightly better Kd than VH3/VK2 fully human composite antibodies. […] (FIG. 16).

Assay [2] addresses B3. Nature of the assay: FACS saturation binding of AF568-labelled mAb to Panc1 CSCs, 4 °C, 20 min. On the procedure: as §1
In assay [3] the target is B3. Nature of the assay: cell-based or functional assay.
The target of assay [4] is B3. Nature of the assay: FACS displacement of AF568-7C5B2 (10 µg/ml) from Panc1 CSCs; peptide at 100x molar excess. Here is the method:
50,000 cells were reacted with 10 µg/ml AF568-labelled 7C5B2 monoclonal antibody (mAb) at 4° C. for 20 min in the absence or presence of the different peptides at 100× molar excess. Samples were immediately subjected to FACS analysis for quantification of DEspR+ cells. Samples were run in duplicates. AngII, angiotensinII; ET1, endothelin-1 (DEspR ligand); sp17, VEGFsp17 (DEspR ligand); sp26, VEGFsp26 (DEspR ligand). Data presented as Mean±SD.

Assay [5] concerns the target B3. Nature of the assay: cell-based or functional assay. The source holds these as a separate data set.
Assay [6] deals with T1, antigenic peptide (AP) EMKSRWNWGS (human/monkey/rat DEspR epitope).
T1 construct: also called 6G8G7 antigenic peptide; partial peptide
T1 peptide: EMKSRWNWGS
Nature of the assay: ELISA on antigenic peptide EMKSRWNWGS
A general note: An ELISA detects its analyte on a solid surface through an enzyme-linked reagent.

Assay [7] has as its target T1, antigenic peptide (AP) EMKSRWNWGS
Nature of the assay: ELISA on antigenic peptide EMKSRWNWGS
Here is the method:
Next, the EC50 of binding to the antigenic peptide was determined by ELISA, as shown in FIGS. 35A-35B, comparing two IgG4 6g8g7 humanized antibody candidates (including humab1 comprising SEQ ID NOs: 63 and 65 and humab2 comprising SEQ ID NO: 65 with substitutions in SEQ ID NO: 26 at Kabat residues 83V and 85Y to give 83D and 85Y), and the IgG1 6G8G7humanized monoclonal antibody (comprising SEQ ID NOs: 61 and 65), and 6G8G7 murine monoclonal antibody (“6g8 mumab”).
(§2) Neutrophils (50000/well) were incubated in the absence or presence of mAbs at 37° C. × 4 hrs and live cells counted by using Trypan blue. HUVEC-dependent angiogenesis (20,000 cells/well) was performed as described in the presence or absence of mAbs. Number of polygons and number of branch points were determined after 14 hrs of incubation at 37° C. ND, not done, indeterminate, value greater than upper limit of max dose used in these experiments.

The target in assay [8] is B3. Nature of the assay: FACS, AF568-labelled mAb on intact DEspR+ human cells (Panc1), 4°C. Here is the method:
Binding was determined by FACS analysis.
as §2
Background: Flow cytometry measures light scatter and fluorescence of single cells or particles in a stream.

A further assay deals with T2, rat DEspR (rat).
T2 chain: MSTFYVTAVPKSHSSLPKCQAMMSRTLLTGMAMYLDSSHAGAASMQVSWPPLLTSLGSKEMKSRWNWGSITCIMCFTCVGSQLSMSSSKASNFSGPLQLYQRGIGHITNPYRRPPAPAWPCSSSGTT
Nature of the assay: cell-based or functional assay.

A further assay has as its target T3, galectin-1 (human, UniProt P09382 2-135).
T3 construct: also called gal1; recombinant galectin-1 protein
Nature of the assay: Western blot of the DEspR complex. For orientation: In western blotting, separated proteins are transferred to a membrane and probed.

T3 sequence (P09382 2-135 limits assumed): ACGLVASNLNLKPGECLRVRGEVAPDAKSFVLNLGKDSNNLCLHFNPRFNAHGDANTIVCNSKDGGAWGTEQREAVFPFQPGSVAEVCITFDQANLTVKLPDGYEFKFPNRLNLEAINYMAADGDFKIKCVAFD

B1: 7C5B2 mouse anti-human DEspR monoclonal antibody (antibody, V domains shown)
VH: QVQLKESGPGLVAPSQSLSITCTVSGFSLKSYAVSWVRQPPGKGLEWLGVIWGDGSTDYHSALISRLSISKDNSKSQFFLRLNSLQTDDTATYYCARGTGTGFAYWGQGTLVTVSA
VL: DVVMTQTPLSLPVSLGDQASISCRSSQSLVHSNGNTYLHWYLQKPGQSPKLLIYKVSNRFSGVPDRFSGSGSGTDFTLKISRVEAEDLGIYFCSQCTHIPWTFGGGTNLEIK
notes: Mouse hybridoma antibody raised against the 9-aa N-terminal peptide of human DEspR; IgG2b was used as its isotype control; AF568-labelled in the FACS and internalization assays; also called 7C5-murine monoclonal antibody; HV2KV2
Usually Kd stands for the constant that tells how readily two partners part at equilibrium. High values mean lower affinity, low ones higher affinity. For the molecule B1, the Kd in [1] is around 5.2 µg/mL; in assay [2], 5.2 µg/mL.

As for MNFLLSWVHWSLALLLYLHHAKWSQA (ligand) [VEGFsp26 (VEGF signal peptide 26)], the “inhibition of HUVEC angiogenesis, IC50 based on total tube length” value in assay [3] is 1.9 nM.

Turning to MNFLLSWVHWSLALLLY (ligand) [VEGFsp17 (VEGF signal peptide 17)], the “stimulation of HUVEC angiogenesis, EC50 based on total tube length” value in assay [3] came to 1.98 nM.

CSCSSLMDKECVYFCHLDIIW (ligand, UniProt P05305 53-73, looked up, also called ET1; ET-1) [endothelin-1]: the binding result in [4] is listed as “binds”.

B2: 6G8G7 murine anti-DEspR monoclonal antibody (antibody, V domains shown)
VH: EVQLQESGGGLVQPGGSLKLSCAASGFDFSRYWMSWVRQAPGKGLEWIGEINPDSSTINYTPSLKDKFIISRDTAKKTLYLQMSKVRSEDTALYYCARHGRGMDYWSQGTSVTVSS
VL: DIVLTQTNQIMSASVGDRVSVTCKASQNVDSNVAWYQQKPGHSPKALIYSASYRYSRVPDRITGSGSGTDFTLTITNVQSKDLADYFCQQYHSYPLLAFGAGTKLELKR
notes: Mouse hybridoma antibody, detected with anti-mouse IgG2b; also called 6g8 mumab; 6g8-mumab
A word on the EC50: it is the concentration that produces a half-maximal response. A high value points to a need for much substance. Regarding B2, in [5], the “Human Angiogenesis assay (HUVECs): branch points, IC50” value was above 30 µg/mL and the “Human Angiogenesis assay (HUVECs): polygons, IC50” value was above 30 µg/mL. In assay [1], this molecule displayed a Kd of around 5.2 µg/mL. The molecule further registered an EC50 in assay [6] of 4.96 µg/mL. Also, in assay [7], the “Bmax (A450)” value was 6.36 A450 and the EC50 stood at 2.96 µg/mL. In addition, the Kd in [2] was 5.2 µg/mL. In [8], the “Bmax (% + cells)” value came to 35.6 % + cells; the EC50 is 5.39 µg/mL and 178 nM. Moreover, the “Rat Neutrophil survival, IC50” value with rat DEspR is above 30 µg/mL.

Take B3: in the assay with galectin-1, the binding result is “binds”.

B4: 6g8^IgG4 humab1 (6g8g7-derived IgG4 humanized monoclonal antibody 1) (antibody)
heavy: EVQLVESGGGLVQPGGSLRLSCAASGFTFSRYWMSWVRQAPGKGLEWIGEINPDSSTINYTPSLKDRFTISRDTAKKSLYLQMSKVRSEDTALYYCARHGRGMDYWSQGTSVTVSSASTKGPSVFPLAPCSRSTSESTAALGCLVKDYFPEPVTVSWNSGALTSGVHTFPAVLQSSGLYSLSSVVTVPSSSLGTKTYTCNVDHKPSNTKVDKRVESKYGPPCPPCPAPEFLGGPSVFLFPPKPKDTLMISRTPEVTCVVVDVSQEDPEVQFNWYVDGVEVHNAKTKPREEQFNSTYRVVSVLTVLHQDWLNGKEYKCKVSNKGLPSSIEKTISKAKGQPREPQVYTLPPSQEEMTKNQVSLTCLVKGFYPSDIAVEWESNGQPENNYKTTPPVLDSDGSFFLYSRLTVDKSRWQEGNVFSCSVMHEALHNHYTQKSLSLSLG
light: DIVLTQSPDILSVSLGERATVNCKASQNVDSNVAWYQQKPGHPPKLLIYSASYRYSRVPDRISGSGSGTDFTLTISNLQAEDVAVYYCQQYHSYPLLAFGAGTKLELKRTVAAPSVFIFPPSDEQLKSGTASVVCLLNNFYPREAKVQWKVDNALQSGNSQESVTEQDSKDSTYSLSSTLTLSKADYEKHKVYACEVTHQGLSSPVTKSFNRGEC
notes: Hinge-stabilized (S228P) human IgG4 / human kappa, transiently expressed in HEK293; AF568-labelled in the FACS assays; also called 6G8IgG4 humanized monoclonal antibody 1 (mAb 1); lead candidate humab
Consider B4, for which, in assay [5], the “Human Angiogenesis assay (HUVECs): branch points, IC50” value is 4.3 µg/mL and the “Human Angiogenesis assay (HUVECs): polygons, IC50” value was 2.6 µg/mL. Besides, in assay [7], the “Bmax (A450)” value amounted to 2.62 A450 and the EC50 was determined as 11.7 µg/mL. In assay [8], the “Bmax (% + cells)” value was determined as 31.5 % + cells; the EC50 is ~4.3 nM and 0.64 µg/mL. For the same molecule, the “Rat Neutrophil survival, IC50” value in the assay with rat DEspR amounted to 1.16 µg/mL.

B5: 6g8^IgG1 humab1 (IgG1 6G8G7 humanized monoclonal antibody) (antibody)
heavy: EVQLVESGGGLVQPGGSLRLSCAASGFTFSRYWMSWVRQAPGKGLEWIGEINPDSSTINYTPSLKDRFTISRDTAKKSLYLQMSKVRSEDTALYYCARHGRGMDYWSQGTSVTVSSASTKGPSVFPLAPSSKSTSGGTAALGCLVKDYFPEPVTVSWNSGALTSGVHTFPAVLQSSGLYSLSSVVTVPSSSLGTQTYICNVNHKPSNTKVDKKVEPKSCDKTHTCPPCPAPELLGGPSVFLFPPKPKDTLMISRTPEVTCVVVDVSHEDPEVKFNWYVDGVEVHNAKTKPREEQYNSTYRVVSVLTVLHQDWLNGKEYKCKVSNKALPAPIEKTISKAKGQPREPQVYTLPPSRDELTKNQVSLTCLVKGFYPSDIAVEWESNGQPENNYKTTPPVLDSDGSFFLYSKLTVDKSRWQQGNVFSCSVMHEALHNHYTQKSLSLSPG
light: DIVLTQSPDILSVSLGERATVNCKASQNVDSNVAWYQQKPGHPPKLLIYSASYRYSRVPDRISGSGSGTDFTLTISNLQAEDVAVYYCQQYHSYPLLAFGAGTKLELKRTVAAPSVFIFPPSDEQLKSGTASVVCLLNNFYPREAKVQWKVDNALQSGNSQESVTEQDSKDSTYSLSSTLTLSKADYEKHKVYACEVTHQGLSSPVTKSFNRGEC
notes: Human IgG1 / human kappa
Regarding B5, in [5], the “Human Angiogenesis assay (HUVECs): branch points, IC50” value amounted to 10.4 µg/mL and the “Human Angiogenesis assay (HUVECs): polygons, IC50” value stood at 9.1 µg/mL. Besides, in assay [7], the “Bmax (A450)” value was 3.09 A450 and the EC50 was determined as 13.4 µg/mL. For the same molecule, in assay [8], the “Bmax (% + cells)” value was determined as 21.6 % + cells; the EC50 is 1.3 µg/mL and 42.9 nM. Further, the “Rat Neutrophil survival, IC50” value in the assay with rat DEspR came to 6.98 µg/mL.
